From US10717774B2, “Compositions and methods for treating cancers” (Kiromic, Inc., priority 2016, dated 2020)

How the values were obtained:
Assay type in all cases: cell-based, human
[1] = tested on: ovarian cancer cell line SKOV3; assay: MTT assay in SKOV3; conditions: for combined effect with Pax compared to Paclitaxel alone by MTT assay: 20 μg/mL 48 hours plus Paclitaxel 100 nM for the last 24 hours; for viability of metabolically-active cells (MTT): protein alone, 20 μg/mL, 48 hours, compared to the control cells
Method: (§1) The human multiple myeloma cell line U266, ovarian cancer cell line SKOV3, and acute monocytic leukemia cell line THP1 were cultured in RPMI 1640 with 10% FBS. The breast cancer cell line MCF7 was cultured in Dulbecco's modified Eagle's medium (DMEM) with 10% FBS. Drugs were purchased from Merck Millipore and used at the following concentrations: Bortezomib (Bor) 5 nM; Cytarabine (Ara-c) 3.87 μM; Rapamycin (Rapa) 100 nM; Paclitaxel (Pax) 100 nM.
(§2) Cells were seeded in 96-well plates, at a volume of 100 μL cell suspension/well, in quadruplicate. SKOV3 and MCF7 cells were seeded at a density of 100,000 cells/mL. THP1 cells were seeded at a density of at 200,000 cells/mL; whereas, U266 cells were seeded at a density of 300,000 cells/mL. Cells were then treated with CBPI1 or CBPI2 at 20 μg/mL for 48 hours. For the last 24 hours, the appropriate drugs were added. Cell viability was subsequently assayed after 48 hours of incubation with 0.6 mg/mL MTT ((3-(4,5-dimethylthiazolyl-2)-2,5-diphenyltetrazolium bromide; Sigma-Aldrich) for 4 hours. Formazan crystals were dissolved in […] 0.01N HCL/isopropanol. Specific absorbance was measured at 570 nm with subtraction of background at 690 nm.
(§3) Data are represented as means±SD from at least three (3) independent experiments. ***^=P<0.001; **^=P<0.01; *^=P<0.05.

[2] = tested on: ovarian cancer cell line SKOV3; assay: Detection of apoptosis (Annexin-V FITC / propidium iodide flow cytometry) in SKOV3; conditions: for apoptotic rate of SKOV3 cells: 20 μg/mL 48 hours, combined with Paclitaxel (Pax) 100 nM for the last 24 hours, compared with Paclitaxel alone
Method: as §1
Cells were seeded in 48-well at the same concentrations for the MTT assay. The cells were treated with CBPI1 or CBPI2 at 20 μg/mL for 48 hours. For the last 24 hours, the appropriate drugs were added. After 48 hours, the cells were washed with cold 1×PBS, resuspended in “Binding buffer 1×” (i.e., HEPES 0.01M; NaCl 0.14M; and CaCl2 2.5 mM) and incubated for 15 minutes with Annexin-V FITC (BD Biosciences)+Propidium Iodide (2.5 μg/mL final; Sigma-Aldrich) in the dark. Finally, 400 μL of Binding Buffer 1× were added to the tube and samples were processed and analyzed using the BD FACSVerse™ System (BD Biosciences).
as §3
FIG. 6—After the indicated treatments, the cells were analyzed for apoptosis by flow-cytometry. Plots represent the relative of fluorescence intensities in the green (FL1, horizontal axis) and red (FL2, vertical axis) channels. The apoptosis detector, Annexin-V, is linked to a green fluorescent molecule (FITC), and produces a fluorescent signal in the FL1 channel. Cells in late apoptosis are unable to pump propidium iodide (PI) out of the cytoplasm, and are therefore red fluorescent. Red fluorescence is thus picked up by the flow-cytometer in the FL2 channel. Each dot represents a fluorescent signal (cell), detected by the flow-cytometer. Each dot-plot is divided into 4 quadrants. From bottom-left and proceeding counter-clockwise, these are Q1, Q2, Q3, and Q4. […]

[3] = tested on: acute monocytic leukemia cell line THP1; assay: Detection of apoptosis (Annexin-V FITC / propidium iodide flow cytometry) in THP1; conditions: 20 μg/mL 48 hours, in combination with Ara-C 3.87 μM for the last 24 hours; compared to the control cells
Method: as §1
(§4) Cells were seeded in 48-well at the same concentrations for the MTT assay. The cells were treated with CBPI1 or CBPI2 at 20 μg/mL for 48 hours. For the last 24 hours, the appropriate drugs were added. […] Finally, 400 μL of Binding Buffer 1× were added to the tube and samples were processed and analyzed using the BD FACSVerse™ System (BD Biosciences). […]
(§5) FIG. 6—After the indicated treatments, the cells were analyzed for apoptosis by flow-cytometry. Plots represent the relative of fluorescence intensities in the green (FL1, horizontal axis) and red (FL2, vertical axis) channels. […] Red fluorescence is thus picked up by the flow-cytometer in the FL2 channel. Each dot represents a fluorescent signal (cell), detected by the flow-cytometer. […]

[4] = tested on: multiple myeloma cell line U266; assay: MTT assay in U266; conditions: protein alone, 20 μg/mL, 48 hours
Method: as §1, §2, §3

[5] = tested on: acute monocytic leukemia cell line THP1; assay: MTT assay in THP1; conditions: protein alone, 20 μg/mL, 48 hours
Method: as §1, §2, §3

[6] = tested on: multiple myeloma cell line U266; assay: Detection of apoptosis (Annexin-V FITC / propidium iodide flow cytometry) in U266; conditions: 20 μg/mL 48 hours, combined with Bortezomib (Bor) 5 nM for the last 24 hours; compared with Bor alone
Method: as §1, §4, §5

[7] = tested on: breast cancer cell line MCF7; assay: Detection of apoptosis (Annexin-V FITC / propidium iodide flow cytometry) in MCF7; conditions: protein alone, 20 μg/mL, 48 hours; compared to the control cells
Method: as §1, §4, §5

[8] = tested on: breast cancer cell line MCF7; assay: MTT assay in MCF7; conditions: protein alone, 20 μg/mL, 48 hours
Method: as §1, §2, §3

B1: CBPI1: novel Gal-3 N-terminal truncation protein, identical in sequence to native Gal-3 amino acids 109-250 (protein)
chain: APAGPLIVPYNLPLPGGVVPRMLITILGTVKPNANRIALDFQRGNDVAFHFNPRFNENNRRVIVCNTKLDNNWGREERQSVFPFESGKPFKIQVLVEPDHFKVAVNDAHLLQYNHRVKKLNEISKLGISGDIDLTSASYTMI
With B1 the “combined effect with Pax compared to Paclitaxel alone by MTT assay” value [1] was “not evident”, the “viability of metabolically-active cells (MTT)” value (from here on “viability”) [1] was “significantly decrease” and the “apoptotic rate of SKOV3 cells” value [2] was “significantly increase”. For the same molecule, the “apoptotic rate of THP1 cells” value [3] was “significantly increase” and the “viability” value [4] was “significantly decrease”.

B2: CBPI2: novel Gal-3 N-terminal truncation protein, deletes amino acids 1-112, substitutions P113A, L114V, Y118N, and T248N (protein)
chain: AVIVPNNLPLPGGVVPRMLITILGTVKPNANRIALDFQRGNDVAFHFNPRFNENNRRVIVCNTKLDNNWGREERQSVFPFESGKPFKIQVLVEPDHFKVAVNDAHLLQYNHRVKKLNEISKLGISGDIDLTSASYNMI
With B2 the “combined effect with Pax compared to Paclitaxel alone by MTT assay” value [1] was “not evident”, the “viability” value [1] was “significantly decrease” and the “viability” value [5] was “significantly decreases”. For the same molecule, the “apoptotic rate of SKOV3 cells” value [2] was “significantly increase”, the “apoptosis in ovarian cancer cells” value ([2]; protein alone, 20 μg/mL, 48 hours, SKOV3) was “effective in causing apoptosis” and the “apoptotic rate of THP1 cells” value [3] was “significantly increase”. For the same molecule, the “U266 cells apoptosis rate” value [6] was “significantly increase”, the “MCF7 cells apoptotic rate” value [7] was “significantly increases” and the “viability” value [8] was “significantly decreases”. The “viability” value [4] was “significantly decrease”.
